Tests used:
Saccharomyces cerevisiae [1] = assay: protein stability index of tFT-peptide fusion in wild type (PSI (0-1 scale)); higher = more stable (slower turnover); conditions: genetic background: wild type
Procedure: (§1)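 MPS profiling in S. cerevisiae of two library types built from selected 12-aa C-degron peptides (IN1, IN2, LN1, LN3, VN2, R1-R5, W1-W3, Atg1 and Rpa12 C-termini): saturation mutagenesis libraries and C-terminal +1 capping libraries (13 aa). Each peptide is fused to the C-terminus of a sfGFP-mCherry timer, after a GGGS linker. Cells are FACS-sorted into 8 mCherry/sfGFP bins and sequenced. PSI runs from 0 (unstable) to 1 (stable), measured once in wild type and in the das1Δ or doa10Δ background.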

Saccharomyces cerevisiae [2] = assay: protein stability index of tFT-peptide fusion in deletion strain of DAS1 (PSI (0-1 scale)); higher = more stable (slower turnover)
Procedure: as §1
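Wherever protein stability index of tFT-peptide fusion in deletion strain of DAS1 is given: PSI is a weighted mean of each variant's read distribution over the sorted stability bins, computed only for variants having over 10 reads in total.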
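Wherever protein stability index of tFT-peptide fusion in wild type is given: PSI derived as read-weighted mean over the 8 sorting bins, only variants exceeding 10 total reads kept, mCherry placed adjacent to the peptide and sfGFP distal.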

Sequence | protein stability index (Saccharomyces cerevisiae [1]) | protein stability index (Saccharomyces cerevisiae [2])
LKILRQVMNHQN | 0.315 | 0.663
LKIMRQKMNHQN | 0.23 | 0.664
LKLLRQKMNHQN | 0.208 | 0.682
LKVLRQKMNHQN | 0.177 | 0.675
LMVYLSCVACIN | 0.0204 | 0.0607
LNILRQKMNHQN | 0.121 | 0.622
LPILRQKMNHQN | 0.125 | 0.683
LPVYLSCVACIN | 0.055 | 0.19
LTILRQKMNHQN | 0.123 | 0.679
LVLYLSCVACIN | 0.0137 | 0.0273
LVQYLSCVACIN | 0.0238 | 0.18
LVVCLSCVACIN | 0.0139 | 0.034
LVVGLSCVACIN | 0.159 | 0.215
LVVMLSCVACIN | 0.0128 | 0.0276
LVVYLLCVACIN | 0.0159 | 0.0739
LVVYLSCAACIN | 0.0321 | 0.166
LVVYLSCEACIN | 0.0807 | 0.0235
LVVYLSCKACIN | 0.0136 | 0.0225
LVVYLSCVACAN | 0.0124 | 0.0251
LVVYLSCVACIC | 0.0144 | 0.0309
LVVYLSCVACID | 0.0162 | 0.0175
LVVYLSCVACINI | 0.0206 | 0.0321
LVVYLSCVACINK | 0.0222 | 0.0356

Sequence | protein stability index (Saccharomyces cerevisiae [1]) | protein stability index (Saccharomyces cerevisiae [2])
LVVYLSCVACINT | 0.0205 | 0.0331
LVVYLSCVACINY | 0.0212 | 0.0337
LVVYLSCVACIQ | 0.0107 | 0.0327
LVVYLSCVACIS | 0.014 | 0.0369
LVVYLSCVACIV | 0.0146 | 0.0299
LVVYLSCVAKIN | 0.0143 | 0.0401
LVVYLSCVALIN | 0.0158 | 0.0501
LVVYLSCVHCIN | 0.0533 | 0.251
LVVYLSCVSCIN | 0.0143 | 0.0441
LVVYNSCVACIN | 0.245 | 0.406
LVVYQSCVACIN | 0.216 | 0.339
LVVYTSCVACIN | 0.0172 | 0.0606
PDKMNHLIKLLN | 0.111 | 0.614
PDKRNHLIKCLN | 0.169 | 0.634
PDKRNHLIKLEN | 0.611 | 0.603
PDKRNHLIKLLG | 0.238 | 0.614
PDKRNHLIKLLK | 0.758 | 0.611
PDKRNHLIKLLND | 0.638 | 0.664
PDKRNHLIKLLNP | 0.663 | 0.672
PDKRNHLIKVLN | 0.186 | 0.577
PDKRNHLIRLLN | 0.144 | 0.614
PDKRNHLLKLLN | 0.157 | 0.6
PDKRRHLIKLLN | 0.115 | 0.605

Sequence | protein stability index (Saccharomyces cerevisiae [1]) | protein stability index (Saccharomyces cerevisiae [2])
PDLAASFWRVVG | 0.151 | 0.708
PDNRNHLIKLLN | 0.171 | 0.604
PDTRNHLIKLLN | 0.183 | 0.59
PGKRNHLIKLLN | 0.127 | 0.585
PHLAASFWRVVG | 0.148 | 0.698
PLIQPLPVQFLN | 0.0682 | 0.604
PSDAASFWRVVG | 0.187 | 0.702
PSLAAKFWRVVG | 0.149 | 0.681
PSLAASDWRVVG | 0.627 | 0.68
PSLAASFWCVVG | 0.47 | 0.687
PSLAASFWDVVG | 0.694 | 0.708
PSLAASFWRHVG | 0.181 | 0.704
PSLAASFWRKVG | 0.131 | 0.688
PSLAASFWRVVGI | 0.667 | 0.696
PSLAASFWRVVGS | 0.234 | 0.697
PSLAASPWRVVG | 0.519 | 0.683
PSLADSFWRVVG | 0.586 | 0.688
PSLAMSFWRVVG | 0.146 | 0.673
PSLHASFWRVVG | 0.157 | 0.684
PSLVASFWRVVG | 0.137 | 0.686
PSSAASFWRVVG | 0.143 | 0.696
QSMRWTFRYWVN | 0.047 | 0.691
RHIQPLPVQFLN | 0.167 | 0.588

Sequence | protein stability index (Saccharomyces cerevisiae [1]) | protein stability index (Saccharomyces cerevisiae [2])
RKIQPLPVQFLN | 0.0533 | 0.616
RLIIPLPVQFLN | 0.018 | 0.551
RLIQALPVQFLN | 0.0525 | 0.683
RLIQPAPVQFLN | 0.0579 | 0.612
RLIQPLDVQFLN | 0.225 | 0.617
RLIQPLEVQFLN | 0.163 | 0.665
RLIQPLPQQFLN | 0.0631 | 0.642
RLIQPLPRQFLN | 0.19 | 0.596
RLIQPLPSQFLN | 0.106 | 0.613
RLIQPLPVQCLN | 0.173 | 0.478
RLIQPLPVQFAN | 0.353 | 0.62
RLIQPLPVQFGN | 0.63 | 0.611
RLIQPLPVQFLNE | 0.659 | 0.676
RLIQPLPVQFLNQ | 0.65 | 0.673
RLIQPLPVQFLW | 0.621 | 0.565
RLIQPLPVQLLN | 0.0606 | 0.577
RLIQPLVVQFLN | 0.045 | 0.587
RLIVPLPVQFLN | 0.0525 | 0.607
RLPQPLPVQFLN | 0.118 | 0.631
RSMRWTFRYWVN | 0.0703 | 0.659
